Values of other authors, collected in US20200216492A1, “USE OF C-TERMINALLY EXTENDED PEPTIDES TO DISRUPT INHIBITOR NK CELL RECEPTOR INTERACTIONS WITH MHC I” (La Jolla Institute for Allergy and Immunology, priority 2016, published 2020).

Target: HLA-B*57:01 (Homo sapiens, UniProt P01889, D201E/D98Y/E176V/E187L/E204Q/E69M/E70A/G107R/I90N/K202T/L105A/L119I/N104I/N87E/Q89R/Q94S/R106L/R155S/R180L/R86G/S101N/S121V/S35A/S48A/T118I/V36M/Y140S/Y91M)
Details: previously determined; read-out: binding affinity KD to HLA-B*57:01

- Kd: 17 µM
B1: KIR3DL1: inhibitory killer immunoglobulin receptor on NK cells binding HLA-B*57:01 (protein, UniProt P43629 22-444, looked up)
Killer cell …: HMGGQDKPFLSAWPSAVVPRGGHVTLRCHYRHRFNNFMLYKEDRIHIPIFHGRIFQESFNMSPVTTAHAGNYTCRGSHPHSPTGWSAPSNPVVIMVTGNHRKPSLLAHPGPLVKSGERVILQCWSDIMFEHFFLHKEGISKDPSRLVGQIHDGVSKANFSIGPMMLALAGTYRCYGSVTHTPYQLSAPSDPLDIVVTGPYEKPSLSAQPGPKVQAGESVTLSCSSRSSYDMYHLSREGGAHERRLPAVRKVNRTFQADFPLGPATHGGTYRCFGSFRHSPYEWSDPSDPLLVSVTGNPSSSWPSPTEPSSKSGNPRHLHILIGTSVVIILFILLLFFLLHLWCSNKKNAAVMDQEPAGNRTANSEDSDEQDPEEVTYAQLDHCVFTQRKITRPSQRPKTPPTDTILYTELPNAKPRSKVVSCP
